The target in assay [1] is T1, SecA (E. coli, UniProt P10408 1-901). In words: cross-linking.
In assay [2] the target is T1, SecA. In words: cross-linking. This is another data set of the same source.

The values below come from paper PMC3290997 (Biochemistry, 2012).

Read-outs that look alike come from different tables or passages of the source. No end group written: not given here. *: point of attachment. Biotin = O=C1N[C@H]2[C@H](CS[C@H]2CCCCC(=O)*)N1; MBP = 4-maleimido-benzophenone

T1 sequence (P10408 whole entry): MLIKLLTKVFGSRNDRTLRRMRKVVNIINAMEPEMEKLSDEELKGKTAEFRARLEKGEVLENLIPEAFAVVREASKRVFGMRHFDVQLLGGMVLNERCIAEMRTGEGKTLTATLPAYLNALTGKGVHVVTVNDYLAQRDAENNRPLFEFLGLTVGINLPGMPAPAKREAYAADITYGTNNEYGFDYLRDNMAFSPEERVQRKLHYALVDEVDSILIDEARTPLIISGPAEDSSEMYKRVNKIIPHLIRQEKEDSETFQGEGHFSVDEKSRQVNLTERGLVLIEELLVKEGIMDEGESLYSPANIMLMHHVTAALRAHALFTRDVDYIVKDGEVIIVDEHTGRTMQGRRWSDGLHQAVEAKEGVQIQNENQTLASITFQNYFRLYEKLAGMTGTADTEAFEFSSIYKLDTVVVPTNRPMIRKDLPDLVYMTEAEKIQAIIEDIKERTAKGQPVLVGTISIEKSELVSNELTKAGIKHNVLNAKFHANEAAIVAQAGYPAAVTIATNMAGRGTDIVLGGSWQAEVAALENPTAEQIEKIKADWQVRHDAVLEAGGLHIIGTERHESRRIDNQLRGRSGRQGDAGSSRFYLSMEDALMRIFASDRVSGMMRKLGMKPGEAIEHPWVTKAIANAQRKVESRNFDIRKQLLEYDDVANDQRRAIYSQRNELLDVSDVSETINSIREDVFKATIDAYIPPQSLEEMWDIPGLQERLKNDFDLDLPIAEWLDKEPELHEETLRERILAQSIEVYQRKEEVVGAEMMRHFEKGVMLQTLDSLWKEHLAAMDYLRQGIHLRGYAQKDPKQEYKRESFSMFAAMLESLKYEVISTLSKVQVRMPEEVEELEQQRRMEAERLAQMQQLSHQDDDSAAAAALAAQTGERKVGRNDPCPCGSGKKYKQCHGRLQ

On to Biotin-MMITLRKRRKLPLAVAVAAGVCSAQAMA [Biotinylated-KRRLamB19C signal peptide], for which, in the assay with SecA [1], the binding result is recorded as “binds”.
Turning to Biotin-MMITLRKRRKLPLAVAVAAGVC(MBP)SAQAMA [Bio-KRRLamB19C-MBP], the binding result with SecA [2] is reported as “binds”.
